These results are taken from patent US20240285757A1 (University of Pennsylvania, published 2024).

The target of test [1] is human CD19 on Nalm6 leukemia cells (human) (UniProt P15391). The test can be described thus: cell-based or functional assay.
Test [2] has as its target EGFR on U87 (U87-MG) human glioblastoma cells (human, UniProt P00533 25-1210). The test can be described thus: cell-based or functional assay.

human CD19 on Nalm6 leukemia cells (human), sequence (P15391 20-556): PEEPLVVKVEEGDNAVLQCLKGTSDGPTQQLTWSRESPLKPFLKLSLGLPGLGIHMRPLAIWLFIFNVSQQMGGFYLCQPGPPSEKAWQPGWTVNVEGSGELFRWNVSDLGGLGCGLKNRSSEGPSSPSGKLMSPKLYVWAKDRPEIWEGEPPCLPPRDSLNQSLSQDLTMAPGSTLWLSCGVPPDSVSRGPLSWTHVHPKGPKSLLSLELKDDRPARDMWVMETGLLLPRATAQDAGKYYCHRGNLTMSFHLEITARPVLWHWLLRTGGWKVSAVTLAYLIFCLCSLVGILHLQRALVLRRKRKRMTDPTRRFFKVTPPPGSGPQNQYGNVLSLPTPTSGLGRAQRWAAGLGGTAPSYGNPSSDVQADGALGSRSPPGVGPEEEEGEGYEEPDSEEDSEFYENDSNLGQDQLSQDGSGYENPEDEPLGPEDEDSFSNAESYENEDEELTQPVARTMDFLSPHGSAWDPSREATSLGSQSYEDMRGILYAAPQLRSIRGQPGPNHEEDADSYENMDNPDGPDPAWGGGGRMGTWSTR

Take “CD19-specific, 4-1BBZ CAR containing the FMC63 scFv”: in test [1], the CpNA functional activity in supernatant after 24 h co-culture at 10:1 E:T (cleavage-activated fluorescent NA substrate) was determined as 4.9 fold and the CpNA functional activity in supernatant after 24 h co-culture with Nalm6 cells at 10:1 E:T turned out to be 19.5 mU/ml.

B1: 806 CAR (EGFR-specific, 4-1BBZ CAR containing an 806 scFv linked via a CD8alpha hinge and CD8a TM to (other)
VH: DVQLQESGPSLVKPSQSLSLTCTVTGYSITSDFAWNWIRQFPGNKLEWMGYISYSGNTRYNPSLKSRISITRDTSKNQFFLQLNSVTIEDTATYYCVTAGRGFPYWGQGTLVTVSA
VL: DILMTQSPSSMSVSLGDTVSITCHSSQDINSNIGWLQQRPGKSFKGLIYHGTNLDDEVPSRFSGSGSGADYSLTISSLESEDFADYYCVQYAQFPWTFGGGTKLEIKR
For the molecule B1, in test [2], the “CpNA levels/activity in supernatant after 24 h co-culture at 10:1 E:T (cleavage-activated fluorescent NA substrate)” value amounted to 2.3 fold.
